The data set “crystal structure” deals with the molecule itself. The experiment in a line: crystal structure.
Data set [1] deals with Mj0480, archaeal DUF106 protein from Methanocaldococcus jannaschii (Methanocaldococcus jannaschii, UniProt Q57904). The experiment in a line: SEC. (Size exclusion chromatography separates by hydrodynamic size, large species first.)

B1: Mj0480, archaeal DUF106 protein from Methanocaldococcus jannaschii (natural protein, UniProt Q57904 1-198, looked up)
chain: MFGSIFDIYYKTLDAIFMPIIKVLHPALAILIIAIIVSLIINIATKLLVDQKRVAELKKEIQEFQVKFKKMSKNPEMMEKLQEEQQRIMQLNAELMKMSFRPMIYTWVPIILIFIYLRHVYGFGGVYQELNPGWNGVVVYLPIILSKILFIDFWHWLGSIFYKGGFKIVSNTALGWLGWYILCSFATSTVLRKILGIK
Take B1: the binding result in “crystal structure” is “binds”.

B2: synthetic antibody fragment (sAB) M1 (Fab, V domains shown)
VH: EVQLVESGGGLVQPGGSLRLSCAASGFNFSSSSIHWVRQAPGKGLEWVASISPSYGYTYYADSVKGRFTISADTSKNTAYLQMNSLRAEDTAVYYCARGIWSYWYMVYPHDNYGMDYWGQGTLVTVSS
VL: DIQMTQSPSSLSASVGDRVTITCRASQSVSSAVAWYQQKPGKAPKLLIYSASSLYSGVPSRFSGSRSGTDFTLTISSLQPEDFATYYCQQSSSRPVTFGQGTKVEIK
The term stoichiometry N denotes a count of units in the complex or per binding partner. Turning to B2, in data set [1], the “stoichiometry N” value turned out to be 1.

(Values after publication PMC4558205 (Structure (London, England : 1993), 2015).)
